US6258776A, “Calcium-regulated kinase” (priority 1997, dated 2001)

Key:
[1] = test system: M960618 melanoma cells (Ndr activity); assay: W-7 effect on Ndr activity in S100B-positive melanoma cells; format: cell-based; conditions: Homo sapiens, 1.25 h; read-out: reduction of Ndr activity
[2] = test system: S100 proteins, including S100B; conditions: cited from earlier work
S100B-Ndr = assay: inhibition of binding of S100B to Ndr
HA-Ndr WT = conditions: 1 μM, 1 h
Procedure: COS-1 cells expressing HA-Ndr WT (as in Example 5) are treated either with solvent alone (Control) or with a panel of cell permeable protein phosphatase inhibitors. The cells are then extracted, HA-Ndr is immunoprecipitated with the anti-HA mAb 12CA5, and the kinase activity of Ndr measured as before, using the peptide substrate.

HA-Ndr = assay: in vitro incubation of immunoprecipitated HA-Ndr with PP2A; format: biochemical; conditions: PP2A plus 100 nM okadaic acid
Procedure: In order to provide evidence that PP2A directly interacts with and thereby affects Ndr activity, HA-Ndr is immunoprecipitated from cells treated with 20 μM A23187 or with solvent alone for 5 min. In parallel, HA-Ndr is immunoprecipitated from cells treated with 1 μM okadaic acid or solvent alone ("Control") for 1 h. Each immunoprecipitate is then incubated in vitro for 1 h with either buffer alone, with purified PP2A (dimeric form consisting of catalytic subunit and 65 kDa regulatory subunit) or with PP2A plus 100 nM okadaic acid. Thereafter, the immunoprecipitates are washed and assayed for Ndr peptide kinase activity as described in Example 5.

PP2A = conditions: concentrations used in cells (okadaic acid 1 μM, cyclosporin A 1 μM); cited from earlier work
[3] = test system: protein phosphatase 1 (PP1); conditions: concentrations used in cells; cited from earlier work
GST-Ndr [4] = target: T1, GST-Ndr (Homo sapiens, UniProt Q15208); assay: GST-Ndr peptide kinase assay with calcium-binding proteins; format: biochemical
T1 construct: made in house
Procedure: 1 μg GST-Ndr WT or GST-Ndr K118A, either in solution or immobilised on glutathione-agarose beads, is assayed in a 20 μl reaction containing 20 mM Tris-HCl pH 7.5, 5 mM MgCl2, 1 mM dithiothreitol, 100 μM [γ-^32 P] […] Reactions are supplemented with either 2 mM EGTA or various concentrations of CaCl2. Bovine CaM, bovine S100B (both from Sigma) or recombinant calcium-binding proteins. After incubation at 30° C. for 60 min, aliquots of the reaction are spotted on to P81 phosphocellulose paper and counted as above.
In brief, coding regions are cloned into the PGEMEX expression vector (Promega) and resultant plasmids used to transform E. coli BL-21 LysS cells. After induction, S100 proteins are purified by ammonium sulphate precipitation followed by Ca^2+ -dependent phenyl-Sepharose chromatography.
The proteins are added together with Ca^2+ into GST-N dr peptide kinase assays. The proteins tested comprised S100A1 (S100α), S100A2 (S100L), S100A4 (CAPL), S100A6 (calcyclin) and S100B (S100β); α-parvalbumin is included as a negative control.
In order to estimate the binding affinity of S100B for Ndr, kinase assays are performed in which GST-Ndr is mixed with various concentrations of purified bovine S100B homodimer, in the presence or absence of calcium.
To determine whether activation of Ndr by S100B occurs at physiological Ca^2+ concentrations, Ndr activity is assayed with or without added S100B over a range of Ca^2+ concentrations.

GST-Ndr [5] = target: T1, GST-Ndr; assay: Ndr autophosphorylation assay; format: biochemical
Procedure: In immune complex kinase assays and autophosphorylation assays (see below), COS-1 cells are transfected as described above or with pECE-Ndr-K118A. After 72 h, cells are washed with ice-cold PBS and lysed in lysis buffer (20 mM Tris-HCl pH 8.0, 150 mM NaCl, 1% (v/v) NP-40, 10% (v/v) glycerol, 5 mM EDTA, 0.5 mM EGTA, 0.5 mM phenylmethyl-sulfonyl fluoride, 4 μM leupeptin, 1 mM benzamidine, 1 μM microcystin and 1 mM Na3 VO4). Lysates are centrifuged at 14,000 g for 20 min. Duplicate aliquots of supernatant (250 μg, 2.5 mg/ml) are incubated for 2 h at 0° C. with 10 μg/ml Ab^1-465. Immune complexes are precipitated by addition of 2 μl protein A-Sepharose (Pharmacia) and mixing for 1 h. The beads are then washed twice with lysis buffer, once with lysis buffer containing 1 M NaCl, with lysis buffer again, and finally twice with 20 mM Tris-HCl pH 7.5. […] After 60 min at 30° C., phosphate incorporation into the peptide is quantitated as described above.
The proteins are added together with Ca^2+ into GST-N dr peptide kinase assays. […] The increased kinase activity observed in the presence of S100A1 and S100B is not due to contaminating kinase activity, because no activity is recorded when kinase-negative GST-Ndr, containing a point mutation (Lys^118→Ala) in the ATP binding pocket, is used in place of wild-type GST-Ndr. […]

GST-Ndr [6] = target: T1, GST-Ndr; assay: preincubation of immobilised GST-Ndr followed by peptide kinase assay; format: biochemical
Procedure: Activation of Ndr by S100B appears to be independent of kinase autophosphorylation. However, increased autophosphorylation is observed: GST-Ndr is immobilised on agarose and preincubated with or without Ca^2+ -S100B, in the presence or absence of Mg-ATP (to either allow or not allow autophosphorylation). The agarose beads are then washed and assayed for Ndr activity as set out herein with radiolabelled ATP and peptide substrate, and in the presence or absence of Ca^2+ -S100B. Preincubation of GST-Ndr with Mg-ATP alone increases its peptide kinase activity, showing that autophosphorylation activates Ndr. […] Preincubation with Ca^2+ S100B alone has no effect, because activation by Ca^2+ -S100B in the preincubation step is mediated by Ndr autophosphorylation.
Ca^2+ -S100B increases the rate Ndr autophosphorylation by 2.5-fold, and it increases autophosphorylation-dependent Ndr activation by 2-fold. However, the total activation of Ndr by Ca^2+ -S100B is larger than this (5- to 10-fold). Thus, the increased autophosphorylation of Ndr caused by Ca^2+ -S100B is not by itself sufficient to account for Ndr activation. In addition, Ca^2+ -S100B probably stimulates Ndr kinase activity directly, in an autophosphorylation-independent manner.

wild-type Ndr = assay: immune complex kinase assay with S100B and Ca^2+, wild-type Ndr; format: biochemical, human; conditions: Ca^2+ -S100B
Procedure: (§1) In immune complex kinase assays and autophosphorylation assays (see below), COS-1 cells are transfected as described above or with pECE-Ndr-K118A. After 72 h, cells are washed with ice-cold PBS and lysed in lysis buffer (20 mM Tris-HCl pH 8.0, 150 mM NaCl, 1% (v/v) NP-40, 10% (v/v) glycerol, 5 mM EDTA, 0.5 mM EGTA, 0.5 mM phenylmethyl-sulfonyl fluoride, 4 μM leupeptin, 1 mM benzamidine, 1 μM microcystin and 1 mM Na3 VO4). Lysates are centrifuged at 14,000 g for 20 min. Duplicate aliquots of supernatant (250 μg, 2.5 mg/ml) are incubated for 2 h at 0° C. with 10 μg/ml Ab^1-465. Immune complexes are precipitated by addition of 2 μl protein A-Sepharose (Pharmacia) and mixing for 1 h. The beads are then washed twice with lysis buffer, once with lysis buffer containing 1 M NaCl, with lysis buffer again, and finally twice with 20 mM Tris-HCl pH 7.5. Beads are resuspended in 30 μl buffer containing 20 mM Tris-HCl pH 7.5, 10 mM MgCl2, 100 μM CaCl2, 1 mM dithiothreitol, 100 μM [γ-^32 P] ATP (0.5 μCi/μls), 1 mM Ndr substrate peptide ([…], SEQ. ID. No. 1), 1 μM cAMP-dependent protein kinase inhibitor peptide (PKI; purchased from Bachem, Bubendorf, Swit zerland), 4 μM leupeptin, 1 mM benzamidine, 1 μM microcystin and, in some assays, 20 μM bovine S100B. After 60 min at 30° C., phosphate incorporation into the peptide is quantitated as described above. […]

Ndr Δ65-81 = assay: immune complex kinase assay with S100B and Ca^2+, Ndr deletion of amino acids 65-81; format: biochemical, human
Procedure: as §1

Ndr Δ1-84 = assay: immune complex kinase assay with S100B and Ca^2+, Ndr lacking amino terminal domain; format: biochemical, human
Procedure: as §1

Ndr = Ndr activity in cell lines with and without S100B expression; format: cell-based, human; conditions: p<0.05, two-tailed Students' t test
Procedure: COS cells are transfected with pECE-Ndr or with empty vector (pECE). 20 μg of these extracts are immunoprecipitated with anti-Ndr (which has been covalently cross-linked to protein A-Sepharose using dimethyl pimelimidate). 400 μg of extract from HeLa cells is immunoprecipitated in parallel. The immunoprecipitates are separated by SDS-PAGE and then immunoblotted using biotinylated anti-Ndr and streptavidin-peroxidase. […] A band of ~53 kDa is also present in HeLa and COS-1 cells and probably represents a proteolytic fragment of full-length Ndr.
Using the method described above, the 12 cell lines are analysed for Ndr abundance. The amount of Ndr (in ng per 400 μg cell extract) is quantitated by densitometry of the blots, and comparison with blots containing known amounts of GST-Ndr. The same cell lines are also assayed for the presence or absence of S100B, by immunoprecipitation of cell extracts with anti-S100B, followed by immunoblotting of the precipitates.

T1 sequence (Q15208 whole entry): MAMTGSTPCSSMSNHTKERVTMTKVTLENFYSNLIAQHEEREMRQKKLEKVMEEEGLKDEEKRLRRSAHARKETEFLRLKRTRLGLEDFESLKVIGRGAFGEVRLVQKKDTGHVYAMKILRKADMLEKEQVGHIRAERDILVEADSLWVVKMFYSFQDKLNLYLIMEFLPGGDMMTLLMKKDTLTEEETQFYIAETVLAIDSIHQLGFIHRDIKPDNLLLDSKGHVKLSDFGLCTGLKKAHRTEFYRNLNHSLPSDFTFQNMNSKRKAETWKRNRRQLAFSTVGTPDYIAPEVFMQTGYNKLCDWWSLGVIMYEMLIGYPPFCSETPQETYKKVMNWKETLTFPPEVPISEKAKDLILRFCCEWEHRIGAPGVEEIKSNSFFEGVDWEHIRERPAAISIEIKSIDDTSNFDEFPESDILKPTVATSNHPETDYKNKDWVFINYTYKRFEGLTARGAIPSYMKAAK

In the case of NCCCCCCNS(=O)(=O)c1cccc2c(Cl)cccc12 [W-7], the inhibition at 50 µM [1] is listed as about 80% and the “binding to S100 proteins” value [2] is listed as “binds to several S100 proteins, including S100B, in a Ca^2+ -dependent manner”.

With “KRLRRSAHARKETEFLRLKRTRLGL [SEQ ID No.32]” the “inhibition of binding of S100B to Ndr” value (S100B-Ndr) was “effectively inhibit binding of S100B to Ndr”.

In the case of C=C1[C@@H](O)[C@@H]2O[C@]3(CC[C@H](/C=C/[C@@H](C)[C@@H]4CC(C)=C[C@@]5(O[C@H](C[C@@](C)(O)C(=O)O)CC[C@H]5O)O4)O3)CC[C@H]2O[C@@H]1[C@@H](O)C[C@H](C)[C@H]1O[C@@]2(CCCCO2)CC[C@H]1C [okadaic acid], the “activation of Ndr” value (HA-Ndr WT) is given as ~ 8 fold, the “prevention of inactivation of HA-Ndr by PP2A” value (HA-Ndr) is given as “inactivation is prevented” and the “inhibition of intracellular PP2A” value (PP2A) is given as “completely inhibits intracellular PP2A”. For the same molecule, the “effect on PP1” value [3] was “does not affect protein phosphatase 1 (PP1)”.

B1: S100B: EF hand calcium-binding protein of the S100 family; bovine S100B homodimer or recombinant (protein, UniProt P02638 2-92, looked up)
Protein S100-B: SELEKAVVALIDVFHQYSGREGDKHKLKKSELKELINNELSHFLEEIKEQEVVDKVMETLDSDGDGECDFQEFMAFVAMITTACHEFFEHE
With B1 the “maximal activation of Ndr” value (GST-Ndr [4]; 2 mM EGTA, without calcium) was “much lower”, the “activation of Ndr in the absence of calcium” value (GST-Ndr [4]; absence of calcium) was “partial activation of Ndr in the absence of calcium” and the “increase in Ndr kinase activity” value (GST-Ndr [4]; added together with Ca^2+, 60 min, 30° C.) was 5-6 fold. The “maximal activation of Ndr” value (GST-Ndr [4]; presence of calcium, bovine S100B homodimer) was ~ 7 fold, the Ndr autophosphorylation (GST-Ndr [5]) was “stimulated Ndr autophosphorylation” and the “increase in rate of Ndr autophosphorylation” value (GST-Ndr [5]; Ca^2+ -S100B) was 2.5 fold. The “increase in autophosphorylation-dependent Ndr activation” value (GST-Ndr [6]; Ca^2+ -S100B) was 2 fold, the “peptide kinase activity after preincubation” value (GST-Ndr [6]; preincubation with Ca^2+ -S100B alone) was “no effect” and the “peptide kinase activity after preincubation” value (GST-Ndr [6]; preincubation with Mg-ATP and Ca^2+ -S100B) was “even greater autoactivation of the peptide kinase activity”. For the same molecule, the “degree of activation of immunoprecipitated Ndr” value (wild-type Ndr) was ~ 2 fold, the “sensitivity to S100B” value (Ndr Δ65-81) was “ablated its sensitivity to S100B” and the “response to S100B” value (Ndr Δ1-84) was “failed to respond to S100B”. The “Ndr average specific activity, S100B-positive versus S100B-negative cell lines” value (Ndr) was ~ 2 fold.
